{"source": "patent US6375945B1", "about": "“Adjuvant compositions for vaccines” (SmithKline Beecham Biologicals s.a., priority 1997, dated 2002)", "molecules": {"B1": {"name": "IL12: murine IL12 purified from the supernatant of transfected P1HTR cells; heterodimeric cytokine (protein, UniProt P43431 23-215; P43432 23-335, looked up)", "Interleukin-12 subunit alpha": "RVIPVSGPARCLSQSRNLLKTTDDMVKTAREKLKHYSCTAEDIDHEDITRDQTSTLKTCLPLELHKNESCLATRETSSTTRGSCLPPQKTSLMMTLCLGSIYEDLKMYQTEFQAINAALQNHNHQQIILDKGMLVAIDELMQSLNHNGETLRQKPPVGEADPYRVKMKLCILLHAFSTRVVTINRVMGYLSSA", "Interleukin-12 subunit beta": "MWELEKDVYVVEVDWTPDAPGETVNLTCDTPEEDDITWTSDQRHGVIGSGKTLTITVKEFLDAGQYTCHKGGETLSHSHLLLHKKENGIWSTEILKNFKNKTFLKCEAPNYSGRFTCSWLVQRNMDLKFNIKSSSSSPDSRAVTCGMASLSAEKVTLDQRDYEKYSVSCQEDVTCPTAEETLPIELALEARQQNKYENYSTSFFIRDIIKPDPPKNLQMKPLKNSQVEVSWEYPDSWSTPHSYFSLKFFVRIQRKKEKMKETEEGCNQKGAFLVEKTSTEVQCKGGNVCVQAQDRYYNSSCSKWACVPCRVRS"}, "B2": {"name": "IFN-γ: cytokine (protein, UniProt P01579 24-161, looked up)", "Interferon gamma": "QDPYVKEAENLKKYFNAGHSDVADNGTLFLGILKNWKEESDRKIMQSQIVSFYFKLFKNFKDDQSIQKSVETIKEDMNVKFFNSNKKKRDDFEKLTNYSVTDLNVQRKAIHELIQVMAELSPAAKTGKRKRSQMLFRG"}, "B3": {"name": "IL-7: cytokine (protein, UniProt P13232 26-177, looked up)", "Interleukin-7": "DCDIEGKDGKQYESVLMVSIDQLLDSMKEIGSNCLNNEFNFFKRHICDANKEGMFLFRAARKLRQFLKMNSTGDFDLHLLKVSEGTTILLNCTGQVKGRKPAALGEAQPTKSLEENKSLKEQKKLNDLCFLKRLLQEIKTCWNKILMGTKEH"}}, "key": {"[1]": {"experiment": "Enhancement of the effect of the QS21/MPL adjuvant by other cytokines"}, "[2]": {"system": "P1983 cells", "experiment": "IL12 dose curve: CTL activity in mice receiving peptide P198 + DQS21/3D-MPL + various doses of IL12", "format": "in vivo, DBA/2 mice", "details": "with P198 peptide and DQS21/3D-MPL", "protocol": "DBA/2 mice were injected s.c. in the two footpads with 50 μg of P198 peptide ([…]), corresponding to the antigen expressed by the P198 TUM—clone (Sibille et al., J. Exp. Med., 1990: 172, 35-45), mixed with the DQS21/3D-MPL adjuvant (adjuvant) 100 μl final. […] This murine IL12 was purified from the supernatant of transfected P1HTR cells as described in Gajewski et al. (J. Immunol. 1995, 154: 5637-5648). […] On day 16, the mice were bled and stimulation of blood lymphocytes was performed by mixing 3×10^5 Ficoll purified lymphocytes with […] stimulating cells (100 Gy) and 2×10^6 irradiated normal syngeneic spleen cells (30 Gy) as feeder cells. The stimulating cells were P1983 cells, an azaguanine-resistant variant derived from the P198 TUM-clone. The cells were incubated in 48-well plates in a final volume of 0,8 ml MLTC medium described in Warnier et al. (Int. J. Cancer, 1996, 67, 303-310). Seven days later, CTL activity was measured in a standard chromium-release assay using 1,000 5^1Cr-labelled targets. […] Specific lytic units were calculated by subtracting the values obtained with the negative targets (usually less than 0,3 LU) from those obtained with the positive target. Mice were scored as ± when the LU detected were comprised between 0,1 and 1; + when LU were comprised between 1 and 10; and ++ above 10 LU. […]"}, "[3]": {"details": "mouse, in vivo"}}, "data": [{"molecule": "GM-CSF: cytokine", "values": [{"measurement": "enhancement of the effect of the QS21/MPL adjuvant", "setting": "[1]", "value": "unable to enhance"}]}, {"molecule": "IL-6: cytokine", "values": [{"measurement": "enhancement of the effect of the QS21/MPL adjuvant", "setting": "[1]", "value": "unable to enhance"}]}, {"molecule": "B1", "values": [{"measurement": "effect of IL12 on CTL activity", "setting": "[2]; IL12 dose/mouse/day 10 ng (100U)", "value": "nearly fully maintained"}, {"measurement": "effect of IL12 on CTL activity", "setting": "[2]; IL12 only 30 ng (so in the source)", "value": "disappeared"}, {"measurement": "systemic toxicity", "setting": "[3]", "value": "largely reduced but not totally absent"}]}, {"molecule": "B2", "values": [{"measurement": "enhancement of the effect of the QS21/MPL adjuvant", "setting": "[1]", "value": "unable to enhance"}]}, {"molecule": "B3", "values": [{"measurement": "enhancement of the effect of the QS21/MPL adjuvant", "setting": "[1]", "value": "unable to enhance"}]}]}
